Measured values as given in paper doi:10.1101/2022.05.13.491786.

Columns and labels:
[1] = biological target: inactive human 80S ribosome (human (endogenous in MCF7)) (UniProt P18124); assay: cryo-EM structure
[2] = biological target: large 60S ribosomal subunit (human (endogenous in MCF7)) (UniProt P30050); assay: cryo-EM structure
[3] = biological target: large 60S ribosomal subunit (human (endogenous in MCF7)) (UniProt P30050); assay: co-sedimentation

IFRD2 (from UniProt Q12894 1-442) (natural protein)
percent of 80S ribosomes with IFRD2 (arsenite-treated cells) [1]: 13% | percent of 80S ribosomes with IFRD2 (untreated cells) [1]: 16.9%

LYAR (from UniProt Q9NX58 1-379) (natural protein)
percent of 80S ribosomes with LYAR (arsenite-treated cells) [1]: 15.5% | percent of 80S ribosomes with LYAR (untreated cells) [1]: 13.2%

eIF6 (from UniProt P56537 1-245) (natural protein)
percent of 60S subunits with eIF6 (untreated cells) [2]: 30% | stoichiometry N (eIF6 : large subunit proteins) [3]: 1
